# Results from article PMC4337669.
# Test system: H-NS (Escherichia coli)
# Test: EMSA
# Conditions: 40 mM HEPES-KOH pH 8.0, 100 mM K-glutamate, 0.022% NP-40, 100 µg/ml BSA, 10% glycerol, 2 or 8 mM Mg aspartate, 20 °C 20 min; 3% native PAGE in 0.5x TBE + 2.5% …
substance,measurement,value
λPR-bgl template (linear pMK110 PCR fragment),K half,2 nM
